Values of other authors as cited in US20030175848A1, “Substituted dithiobisnitrobenzenes and their applications” (Institut Pasteur De Lille, priority 1998, published 2003).

Biological target: T1, human thioredoxin reductase (hTrxR) (Homo sapiens, UniProt Q16881)
T1 construct: U of native hTrxR; from tissue; host or cells: human placenta
T1 sequence (Q16881 151-649 limits assumed): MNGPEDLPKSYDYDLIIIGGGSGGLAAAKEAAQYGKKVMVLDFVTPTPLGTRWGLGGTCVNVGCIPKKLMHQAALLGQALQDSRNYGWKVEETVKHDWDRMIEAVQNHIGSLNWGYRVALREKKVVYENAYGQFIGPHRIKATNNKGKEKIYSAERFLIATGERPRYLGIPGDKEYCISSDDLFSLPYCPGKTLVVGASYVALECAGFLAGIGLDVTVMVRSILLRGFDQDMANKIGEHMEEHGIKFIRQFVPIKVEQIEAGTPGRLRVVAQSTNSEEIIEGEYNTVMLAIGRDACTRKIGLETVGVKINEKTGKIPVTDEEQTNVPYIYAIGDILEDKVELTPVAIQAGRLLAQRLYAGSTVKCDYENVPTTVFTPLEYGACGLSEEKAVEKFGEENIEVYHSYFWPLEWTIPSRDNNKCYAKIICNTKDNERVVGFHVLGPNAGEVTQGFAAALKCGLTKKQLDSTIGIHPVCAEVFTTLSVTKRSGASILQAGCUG
Conditions: substrate of native hTrxR (placenta); references [29], [38]

B1: HTrx: human thioredoxin, physiological substrate of hTrxR (protein, UniProt P10599 2-105, looked up)
Thioredoxin: VKQIESKTAFQEALDAAGDKLVVVDFSATWCGPCKMIKPFFHSLSEKYSNVIFLEVDVDDCQDVASECEVKCMPTFQFFKKGQKVGEFSGANKEKLEATINELV
Km: 4.3 µM
